Results taken from patent US20200148733A1.

Biological target: human IL-23 (human) (UniProt Q9NPF7)
Experiment: cell-based or functional assay

Sequence of human IL-23 (human) (Q9NPF7 20-189, chain 1 of 2): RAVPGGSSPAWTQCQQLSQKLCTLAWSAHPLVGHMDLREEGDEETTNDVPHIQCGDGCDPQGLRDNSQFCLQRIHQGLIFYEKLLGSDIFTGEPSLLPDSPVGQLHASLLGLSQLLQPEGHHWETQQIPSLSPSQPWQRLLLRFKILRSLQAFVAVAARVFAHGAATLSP
Sequence of human IL-23 (human) (P29460 23-328, chain 2 of 2, further chain): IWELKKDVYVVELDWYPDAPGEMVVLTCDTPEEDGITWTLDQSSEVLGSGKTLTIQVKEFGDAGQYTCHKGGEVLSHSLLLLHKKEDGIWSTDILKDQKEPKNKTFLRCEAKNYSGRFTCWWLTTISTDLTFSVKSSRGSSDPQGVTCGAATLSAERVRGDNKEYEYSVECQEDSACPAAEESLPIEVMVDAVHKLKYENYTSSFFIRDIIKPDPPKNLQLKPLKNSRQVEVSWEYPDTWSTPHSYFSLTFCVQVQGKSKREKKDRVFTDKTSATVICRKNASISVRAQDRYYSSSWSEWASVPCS

- EC50 [nM] AVERAGE, hIL-23-induced proliferation of Ba/F3 cells expressing hIL-23R and hIL-12Rβ1: 2.4 nM
- EC50 [nM] Exp 1, hIL-23-induced proliferation of Ba/F3 cells expressing hIL-23R and hIL-12Rβ1: 1.9 nM
- EC50 [nM] Exp 2, hIL-23-induced proliferation of Ba/F3 cells expressing hIL-23R and hIL-12Rβ1: 2.3 nM
- EC50 [nM] Exp 3, hIL-23-induced proliferation of Ba/F3 cells expressing hIL-23R and hIL-12Rβ1: 3.5 nM
- EC50 [nM] Exp 4, hIL-23-induced proliferation of Ba/F3 cells expressing hIL-23R and hIL-12Rβ1: 2 nM
- IC50, hIL-23-induced proliferation of Ba/F3 cells expressing hIL-23R and hIL-12Rβ1: 11.1 nM
Substance: benchmark antibody ustekinumab (Stelara, obtained from Janssen-Cilag)
